According to patent US12485192B2, “Cellular targeted label delivery system” (CELLIS AG, priority 2016, dated 2025):

Test system: CD45+ leukocyte cells (macrophages, monocytes, lymphocytes, granulocytes)
Assay: Uptake of iron binding proteins by CD45+ leukocyte cells in culture
Type: cell-based, mouse
Conditions: incubation 1-4 hrs, 0.1-0.2 mg/ml protein solution, standard culture conditions; FIG. 5
Method: Obtained cells are incubated in ferritin solution for a time and at the concentration sufficient to ensure proper ratio of ferritin/cell for their full load and also to ensure proper contrast content to obtain proper imaging). The time and concentration may vary depending on the number of molecules encapsulated/adsorbed into the ferritin cage, status of cell activation, condition and number of their intended administration.
For example, to ensure proper load with ferritins, cells are incubated for 1-4 hrs in ferritin solution 0.2 mg/ml in standard culture conditions. The frame of ferritin concentration may vary at least between 0.01 and 4 mg/ml as well as incubation time (5 min-6 hrs or more). Adjusting time and concentration of ferritin load to cells, the influence of ferritin and treatment conditions on cell viability should be minded.
Obtained cells are incubated in haemoglobin solution for a time and at the concentration sufficient to ensure proper ratio of haemoglobin/cell for their full load and also to ensure proper contrast content to obtain proper imaging. The time and concentration may vary depending on the number of molecules linked with the haemoglobin molecule, status of cell activation, condition and number of their intended administration. […]

B1: ferritins: recombinant mouse ferritin protein of SEQ ID NO: 4 expressed in E. coli (protein)
chain: MTTASPSQVRQNYHQDAEAAINRQINLELYASYVYLSMSCYFDRDDVALKNFAKYFLHQSHEEREHAEKLMKLQNQRGGRIFLQDIKKPDRDDWESGLNAMECALHLEKSVNQSLLELHKLATDKNDPHLCDFIETYYLSEQVKSIKELGDHVTNLRKMGAPEAGMAEYLFDKHTLGHGD
- uptake of iron binding protein by cells: very easily uptake
